Laboratory results reported in patent US20040048327.

What was measured:
Ac-AHph-trans-EP-COOEt = system: T1, Ac-AHph-trans-EP-COOEt
T1 sequence: X

[1] = system: T2, Ac-Leu-AHph-trans-EP-COOEt
T2 sequence: LX

[2] = system: T3, Ac-Leu-ALeu-trans-EP-COOEt
T3 sequence: LL

Cbz-AHph-trans-EP-COOEt = system: T4, Cbz-AHph-trans-EP-COOEt
T4 sequence: X

Cbz-ALeu-trans-EP-COOEt = system: T5, Cbz-ALeu-trans-EP-COOEt
T5 sequence: L

[3] = system: T6, Cbz-Leu-AAbu-trans-EP-COOEt
T6 sequence: LX

[4] = system: T7, Cbz-Leu-AAbu-trans-EP-COOH
T7 sequence: LX

[5] = system: T8, Cbz-Leu-AHph-(2R, 3R)-EP-COOEt
T8 sequence: LX

[6] = system: T9, Cbz-Leu-AHph-(2S, 3S)-EP-COOEt
T9 sequence: LX

[7] = system: T10, Cbz-Leu-AHph-(2S, 3S)-EP-COOH
T10 sequence: LX

[8] = system: T11, Cbz-Leu-AHph-cis-EP-COOEt
T11 sequence: LX

[9] = system: T12, Cbz-Leu-ALeu-(2R, 3R)-EP-COOEt
T12 sequence: LL

[10] = system: T13, Cbz-Leu-ALeu-(2S, 3S)-EP-COOEt
T13 sequence: LL

[11] = system: T14, Cbz-Leu-ALeu-cis-EP-COOEt
T14 sequence: LL

[12] = system: T15, Cbz-Leu-ALeu-trans-EP-COOEt
T15 sequence: LL

[13] = system: T16, Cbz-Leu-Leu-ALeu-(2R, 3R)-EP-COOEt
T16 sequence: LLL

[14] = system: T17, Cbz-Leu-Leu-ALeu-(2S, 3S)-EP-COOEt
T17 sequence: LLL

[15] = system: T18, Cbz-Leu-Leu-ALeu-(2S, 3S)-EP-COOH
T18 sequence: LLL

[16] = system: T19, Cbz-Leu-Leu-ALeu-trans-EP-COOEt
T19 sequence: LLL

[17] = system: T20, Boc-Abu-AHph-trans-EP-CH2CH2Ph
T20 sequence: XX

[18] = system: T21, Boc-Nle-AHph-trans-EP-CH2CH2Ph
T21 sequence: XX

[19] = system: T22, Boc-Nle-AHph-trans-EP-COOEt
T22 sequence: XX

[20] = system: T23, Boc-Np2-ALeu-trans-EP-COOEt
T23 sequence: XL

[21] = system: T24, Boc-Nva-AHph-trans-EP-COOEt
T24 sequence: XX

Cbz-APhe-trans-EP-COOEt = system: T25, Cbz-APhe-trans-EP-COOEt
T25 sequence: F

[22] = system: T26, Cbz-Ala-Ala-AAsn-(2R, 3R)-EP-COOEt
T26 sequence: AAN

[23] = system: T27, Cbz-Ala-Ala-AAsn-(2S, 3S)-EP-COOEt
T27 sequence: AAN

[24] = system: T28, Cbz-Ala-Ala-AAsn-cis-EP-COOEt
T28 sequence: AAN

[25] = system: T29, Cbz-Ala-Ala-AAsn-trans-EP-COOCH2Ph
T29 sequence: AAN

[26] = system: T30, Cbz-Ala-Ala-AAsn-trans-EP-COOEt
T30 sequence: AAN

[27] = system: T31, Cbz-Ala-Ala-NHN(CH2COOEt)-trans-EP-COOEt
T31 sequence: AAD

[28] = system: T32, Cbz-Asp-Glu-Val-AAsp-(2R, 3R)-EP-COOEt
T32 sequence: DEVD

[29] = system: T33, Cbz-Asp-Glu-Val-AAsp-(2S, 3S)-EP-COOEt
T33 sequence: DEVD

[30] = system: T34, Cbz-Ile-Glu-Thr-AAsp-(2S, 3S)-EP-COOEt
T34 sequence: IETD

[31] = system: T35, Cbz-Leu-Glu-Thr-AAsp-(2R, 3R)-EP-COOEt
T35 sequence: LETD

[32] = system: T36, Cbz-Leu-Glu-Thr-AAsp-(2S, 3S)-EP-COOEt
T36 sequence: LETD

[33] = system: T37, Cbz-Leu-Phe-AGln-(2R, 3R)-EP-COOEt
T37 sequence: LFQ

[34] = system: T38, Cbz-Leu-Phe-AGln-(2S, 3S)-EP-COOEt
T38 sequence: LFQ

[35] = system: T39, Cbz-Leu-Phe-AGln-trans-EP-COOEt
T39 sequence: LFQ

[36] = system: T40, Cbz-Phe-ALeu-trans-EP-CH2CH2Ph
T40 sequence: FL

[37] = system: T41, Cbz-Phe-ALeu-trans-EP-COOEt
T41 sequence: FL

[38] = system: T42, Cbz-Phe-APhe-trans-EP-CH2CH2Ph
T42 sequence: FF

[39] = system: T43, PhPr-Val-Ala-AAsp-(2R, 3R)-EP-COOCH2Ph
T43 sequence: VAD

[40] = system: T44, PhPr-Val-Ala-AAsp-(2S, 3S)-EP-COOCH2Ph
T44 sequence: VAD

[41] = system: T45, PhPr-Val-Ala-AAsp-trans-EP-CH2CH2Ph
T45 sequence: VAD

[42] = system: T46, PhPr-Val-Ala-AAsp-trans-EP-COOCH2Ph
T46 sequence: VAD

[43] = system: T47, Suc-Np2-ALeu-trans-EP-COOEt
T47 sequence: XL

[44] = system: T48, Nle-AHph-trans-EP-COOEt.TFA
T48 sequence: XX

[45] = system: T49, Nva-AHph-trans-EP-CH2CH2Ph.TFA
T49 sequence: XX

[46] = system: T50, Nva-AHph-trans-EP-COOEt.TFA
T50 sequence: XX

How did the kobs/[I] (Ac-AHph-trans-EP-COOEt) turn out when calpain was run?
The kobs/[I] was 1.29 M⁻¹ s⁻¹.

What about the kobs/[I] [1] of the same substance?
Its kobs/[I] is 0.84 M⁻¹ s⁻¹.

What about the kobs/[I] [2] of the same substance?
The kobs/[I] was 1.48 M⁻¹ s⁻¹.

What about the kobs/[I] (Cbz-AHph-trans-EP-COOEt) of the same substance?
The kobs/[I] was 2.44 M⁻¹ s⁻¹.

What about the kobs/[I] (Cbz-ALeu-trans-EP-COOEt) of the same substance?
The kobs/[I] was 1.75 M⁻¹ s⁻¹.

What about the kobs/[I] [3] of the same substance?
The kobs/[I] was 1.98 M⁻¹ s⁻¹.

And the kobs/[I] [4]?
Its kobs/[I] is 0.57 M⁻¹ s⁻¹.

And the kobs/[I] [5]?
The kobs/[I] was 2.12 M⁻¹ s⁻¹.

And the kobs/[I] [6]?
Its kobs/[I] is 2.28 M⁻¹ s⁻¹.

What about the kobs/[I] [7] of the same substance?
Its kobs/[I] is 2.12 M⁻¹ s⁻¹.

What about the kobs/[I] [8] of the same substance?
The kobs/[I] was 1.09 M⁻¹ s⁻¹.

And the kobs/[I] [9]?
The kobs/[I] was 1.45 M⁻¹ s⁻¹.

And the kobs/[I] [10]?
Its kobs/[I] is 8.58 M⁻¹ s⁻¹.

What about the kobs/[I] [11] of the same substance?
Its kobs/[I] is 1.88 M⁻¹ s⁻¹.

And the kobs/[I] [12]?
Its kobs/[I] is 3.09 M⁻¹ s⁻¹.

What about the “kobs/[I]” value [13] of the same substance?
The value was “NI”.

What about the kobs/[I] [14] of the same substance?
Its kobs/[I] is 2.48 M⁻¹ s⁻¹.

And the kobs/[I] [15]?
Its kobs/[I] is 0.82 M⁻¹ s⁻¹.

And the kobs/[I] [16]?
The kobs/[I] was 2.65 M⁻¹ s⁻¹.

For cathepsin B, which kobs/[I] (Ac-AHph-trans-EP-COOEt) is on record?
Its kobs/[I] is 40.6 M⁻¹ s⁻¹.

What about the kobs/[I] [1] of the same substance?
The kobs/[I] was 0.59 M⁻¹ s⁻¹.

What about the kobs/[I] [2] of the same substance?
Its kobs/[I] is 8 M⁻¹ s⁻¹.

What about the “kobs/[I]” value [17] of the same substance?
The value was “NI”.

And the “kobs/[I]” value [18]?
Its value is “NI”.

What about the kobs/[I] [19] of the same substance?
Its kobs/[I] is 1.3 M⁻¹ s⁻¹.

And the kobs/[I] [20]?
Its kobs/[I] is 0.39 M⁻¹ s⁻¹.

What about the kobs/[I] [21] of the same substance?
Its kobs/[I] is 2.7 M⁻¹ s⁻¹.

And the kobs/[I] (Cbz-AHph-trans-EP-COOEt)?
The kobs/[I] was 8.91 M⁻¹ s⁻¹.

What about the kobs/[I] (Cbz-ALeu-trans-EP-COOEt) of the same substance?
The kobs/[I] was 4.43 M⁻¹ s⁻¹.

And the kobs/[I] (Cbz-APhe-trans-EP-COOEt)?
The kobs/[I] was 1.8 M⁻¹ s⁻¹.

And the “kobs/[I]” value [22]?
The value was “NI”.

And the kobs/[I] [23]?
Its kobs/[I] is 6 M⁻¹ s⁻¹.

And the “kobs/[I]” value [24]?
The value was “NI”.

And the kobs/[I] [25]?
Its kobs/[I] is 1.09 M⁻¹ s⁻¹.

And the kobs/[I] [26]?
The kobs/[I] was 1.27 M⁻¹ s⁻¹.

And the kobs/[I] [27]?
The kobs/[I] was 2.53 M⁻¹ s⁻¹.

And the “kobs/[I]” value [28]?
The value was “NI”.

What about the “kobs/[I]” value [29] of the same substance?
Its value is “NI”.

And the “kobs/[I]” value [30]?
The value was “NI”.

What about the “kobs/[I]” value [4] of the same substance?
Its value is “NI”.

What about the “kobs/[I]” value [5] of the same substance?
Its value is “NI”.

What about the kobs/[I] [6] of the same substance?
Its kobs/[I] is 0.67 M⁻¹ s⁻¹.

What about the “kobs/[I]” value [8] of the same substance?
Its value is “NI”.

And the “kobs/[I]” value [9]?
Its value is “NI”.

And the kobs/[I] [10]?
Its kobs/[I] is 1.8 M⁻¹ s⁻¹.

And the kobs/[I] [11]?
Its kobs/[I] is 6.27 M⁻¹ s⁻¹.

What about the kobs/[I] [12] of the same substance?
The kobs/[I] was 23.3 M⁻¹ s⁻¹.

And the “kobs/[I]” value [31]?
The value was “NI”.

And the “kobs/[I]” value [32]?
The value was “NI”.

And the “kobs/[I]” value [13]?
Its value is “NI”.

What about the kobs/[I] [14] of the same substance?
Its kobs/[I] is 0.98 M⁻¹ s⁻¹.

And the kobs/[I] [15]?
The kobs/[I] was 7.02 M⁻¹ s⁻¹.

What about the “kobs/[I]” value [16] of the same substance?
Its value is “NI”.

What about the “kobs/[I]” value [33] of the same substance?
The value was “NI”.

What about the kobs/[I] [34] of the same substance?
Its kobs/[I] is 4.73 M⁻¹ s⁻¹.

What about the kobs/[I] [35] of the same substance?
The kobs/[I] was 1.3 M⁻¹ s⁻¹.

What about the “kobs/[I]” value [36] of the same substance?
Its value is “NI”.

And the kobs/[I] [37]?
Its kobs/[I] is 3.61 M⁻¹ s⁻¹.

And the “kobs/[I]” value [38]?
The value was “NI”.

And the “kobs/[I]” value [39]?
The value was “NI”.

And the kobs/[I] [40]?
Its kobs/[I] is 0.81 M⁻¹ s⁻¹.

And the “kobs/[I]” value [41]?
Its value is “NI”.

And the kobs/[I] [42]?
Its kobs/[I] is less than 10 M⁻¹ s⁻¹.

And the kobs/[I] [43]?
The kobs/[I] was 0.8 M⁻¹ s⁻¹.

chymotrypsin was tested. Which “kobs/[I]” value [22] did it give?
Its value is “NI”.

What about the “kobs/[I]” value [23] of the same substance?
Its value is “NI”.

And the “kobs/[I]” value [24]?
The value was “NI”.

And the “kobs/[I]” value [26]?
Its value is “NI”.

What about the “kobs/[I]” value [28] of the same substance?
Its value is “NI”.

What about the “kobs/[I]” value [29] of the same substance?
Its value is “NI”.

What about the “kobs/[I]” value [31] of the same substance?
Its value is “NI”.

What about the “kobs/[I]” value [32] of the same substance?
Its value is “NI”.

What about the “kobs/[I]” value [41] of the same substance?
Its value is “NI”.

And the “kobs/[I]” value [42]?
Its value is “NI”.

For dipeptidyl peptidase I, which kobs/[I] [19] is on record?
Its kobs/[I] is 0.7 M⁻¹ s⁻¹.

What about the kobs/[I] [21] of the same substance?
Its kobs/[I] is 0.5 M⁻¹ s⁻¹.

And the kobs/[I] [44]?
Its kobs/[I] is 8.2 M⁻¹ s⁻¹.

What about the kobs/[I] [45] of the same substance?
The kobs/[I] was 0.1 M⁻¹ s⁻¹.

What about the kobs/[I] [46] of the same substance?
Its kobs/[I] is 3.2 M⁻¹ s⁻¹.
